Data taken from US20200172620A1 (Genentech, published 2020).
Blank lines part the entries; values can stand above or below the binder they belong to.

How the values were obtained:
[1] = target: T1, human CD8 (as used in SPR) (human, UniProt P01732 22-182); experiment: SPR
T1 construct: also called huCD8

[2] = target: T2, cynomolgous CD8 (as used in SPR) (cynomolgous monkey); experiment: SPR, Fab
T2 construct: also called cyno CD8

[3] = target: T3, human CD8 on cells (FACS) (human, UniProt P01732 22-235); experiment: FACS
T3 construct: whole, on cells

[4] = target: T4, cynomolgous CD8 on cells (FACS) (cynomolgous monkey); experiment: FACS
T4 construct: whole, on cells; also called cyno CD8

[5] = target: T5, rhesus CD8 on cells (FACS) (rhesus monkey, UniProt P01732 23-235 (human entry)); experiment: FACS
T5 construct: also called rhesus monkey CD8

[6] = target: T1, human CD8 (as used in SPR); experiment: SPR (Fab, by paragraph 255)
[7] = target: T2, cynomolgous CD8 (as used in SPR); experiment: SPR (Fab, by paragraph 255)
[8] = target: T2, cynomolgous CD8 (as used in SPR); experiment: SPR
[9] = target: T1, human CD8 (as used in SPR); experiment: SPR, Fab
[10] = target: T6, mouse CD8 on CD8+ cells isolated from mouse blood (mouse, UniProt P01731 28-247); experiment: FACS with CD8+ cells isolated from mouse blood
T6 construct: whole, on cells

[11] = target: T7, rat CD8 on CD8+ cells isolated from rat blood (rat, UniProt P07725 27-236); experiment: FACS with CD8+ cells isolated from rat blood
T7 construct: whole, on cells
T7 sequence (looked up): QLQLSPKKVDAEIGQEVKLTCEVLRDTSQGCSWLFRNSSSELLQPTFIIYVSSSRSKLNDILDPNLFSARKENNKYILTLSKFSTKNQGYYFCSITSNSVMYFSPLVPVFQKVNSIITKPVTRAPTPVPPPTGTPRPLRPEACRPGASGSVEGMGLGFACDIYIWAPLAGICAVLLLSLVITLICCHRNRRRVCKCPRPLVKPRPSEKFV

[12] = target: T3, human CD8 on cells (FACS); experiment: FACS titration on cells carrying human CD8 (legend paragraph 23: CHO cells expressing recombinant human CD8; text paragraph 256: PBMCs)

T3 sequence (P01732 22-235): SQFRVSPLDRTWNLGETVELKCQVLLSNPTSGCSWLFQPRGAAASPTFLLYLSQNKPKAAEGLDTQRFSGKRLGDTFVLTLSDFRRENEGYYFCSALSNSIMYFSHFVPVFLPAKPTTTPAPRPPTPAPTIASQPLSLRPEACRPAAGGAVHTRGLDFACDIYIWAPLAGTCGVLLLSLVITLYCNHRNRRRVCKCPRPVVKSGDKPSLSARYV
T1 sequence (P01732 22-182): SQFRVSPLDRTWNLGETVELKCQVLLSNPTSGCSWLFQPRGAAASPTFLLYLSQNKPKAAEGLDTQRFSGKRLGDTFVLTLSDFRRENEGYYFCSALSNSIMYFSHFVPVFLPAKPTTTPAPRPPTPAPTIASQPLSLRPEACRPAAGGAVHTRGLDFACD
T5 sequence (P01732 other isoform, or with tags, fused parts or gaps limits assumed): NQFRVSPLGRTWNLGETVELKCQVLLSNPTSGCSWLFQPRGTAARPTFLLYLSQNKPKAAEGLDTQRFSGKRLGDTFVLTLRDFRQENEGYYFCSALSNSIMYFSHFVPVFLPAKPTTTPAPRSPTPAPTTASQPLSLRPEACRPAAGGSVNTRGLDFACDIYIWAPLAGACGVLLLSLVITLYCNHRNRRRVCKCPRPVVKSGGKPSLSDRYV
T6 sequence (P01731 28-247): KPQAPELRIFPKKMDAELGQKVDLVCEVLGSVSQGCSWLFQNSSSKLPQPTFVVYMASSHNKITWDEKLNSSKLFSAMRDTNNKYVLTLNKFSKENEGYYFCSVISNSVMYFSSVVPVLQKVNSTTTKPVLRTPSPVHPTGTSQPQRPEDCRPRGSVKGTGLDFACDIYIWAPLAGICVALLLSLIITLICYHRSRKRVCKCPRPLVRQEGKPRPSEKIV

B1: huOKT8.v9 (Fab, V domains shown)
VH: EVQLVQSGAEVKKPGASVKVSCKASGFNIKDTYIHWVRQAPGQGLEWIGRIDPANDNTLYASKFQGRATITADTSTSTAYLELSSLRSEDTAVYYCGRGYGYYVFDHWGQGTLVTVSS
VL: DVQITQSPSSLSASVGDRVTITCRTSRSISQYLAWYQEKPGKTNKLLIYSGSTLQSGIPSRFSGSGSGTDFTLTISSLQPEDFATYYCQQHNEFPVTFGQGTKVEIKR
notes: also called OKT.v9 Fab
Ratio of KD huOKT8.v1/KD variant for binding to huCD8 [1]: 37 X
fold improvement in binding compared to huOKT8.v1 [2]: 50 fold
Kd [3]: 2 nM
Kd [4]: 44 nM
Kd [5]: 121 nM
Kd [6]: 0.3 nM
Kd [7]: 103 nM

B2: huOKT8.v1 (antibody, V domains shown)
VH: EVQLVQSGAEVKKPGASVKVSCKASGFNIKDTYIHWVRQAPGQGLEWIGRIDPANDNTLYASKFQGRATITADTSTSTAYLELSSLRSEDTAVYYCGRGYGYYVFDHWGQGTLVTVSS
VL: DVQITQSPSSLSASVGDRVTITCRTSRSISQYLAWYQEKPGKTNKLLIYSGSTLQSGIPSRFSGSGSGTDFTLTISSLQPEDFATYYCQQHNENPLTFGQGTKVEIK
Kd [8]: 5250 nM

B3: huOKT8.v11 (Fab, V domains shown)
VH: EVQLVQSGAEVKKPGASVKVSCKASGFNIKDTYIHWVRQAPGQGLEWIGRIDPANDNTLYASKFQGRATITADTSTSTAYLELSSLRSEDTAVYYCGRGYGYYVFDHWGQGTLVTVSS
VL: DVQITQSPSSLSASVGDRVTITCRTSRSISQYLAWYQEKPGKTNKLLIYSGSTLQSGIPSRFSGSGSGTDFTLTISSLQPEDFATYYCQQVNEFPPTFGQGTKVEIKR
notes: also called OKT.v11 Fab
Ratio of KD huOKT8.v1/KD variant for binding to huCD8 [1]: 37 X
fold improvement in binding compared to huOKT8.v1 [9]: 55 fold
fold improvement in binding compared to huOKT8.v1 [2]: 230 fold
binding result [10]: no binding
Kd [3]: 2 nM
Kd [4]: 13 nM
Kd [5]: 20 nM
binding result [11]: no binding
EC50 (read off the curve) [12]: ~0.8 µg/mL
Kd [6]: 0.2 nM
Kd [7]: 23 nM

B5: huOKT8.v10 (antibody, V domains shown)
VH: EVQLVQSGAEVKKPGASVKVSCKASGFNIKDTYIHWVRQAPGQGLEWIGRIDPANDNTLYASKFQGRATITADTSTSTAYLELSSLRSEDTAVYYCGRGYGYYVFDHWGQGTLVTVSS
VL: DVQITQSPSSLSASVGDRVTITCRTSRSISQYLAWYQEKPGKTNKLLIYSGSTLQSGIPSRFSGSGSGTDFTLTISSLQPEDFATYYCQQHNEFPPTFGQGTKVEIKR
notes: The entries as printed are a Fab heavy chain and a whole kappa light chain
Ratio of KD huOKT8.v1/KD variant for binding to huCD8 [1]: 18 X

Continued, values first:

Ratio of KD huOKT8.v1/KD variant for binding to huCD8 [1]: 210 X
B4: huOKT8.v17 (antibody, V domains shown)
VH: EVQLVQSGAEVKKPGASVKVSCKASGFNIKDTYIHWVRQAPGQGLEWIGRIDPANDNTLYASKFQGRATITADTSTSTAYLELSSLRSEDTAVYYCGRGYGYYVFDHWGQGTLVTVSS
VL: DVQITQSPSSLSASVGDRVTITCRTSRSISKYLAWYQEKPGKTNKLLIYSGSTLQSGIPSRFSGSGSGTDFTLTISSLQPEDFATYYCQQVNEFPVTFGQGTKVEIKR
notes: as for B5

Ratio of KD huOKT8.v1/KD variant for binding to huCD8 [1]: 73 X
B6: huOKT8.v12 (antibody, V domains shown)
VH: EVQLVQSGAEVKKPGASVKVSCKASGFNIKDTYIHWVRQAPGQGLEWIGRIDPANDNTLYASKFQGRATITADTSTSTAYLELSSLRSEDTAVYYCGRGYGYYVFDHWGQGTLVTVSS
VL: DVQITQSPSSLSASVGDRVTITCRTSRSISQYLAWYQEKPGKTNKLLIYSGSTLQSGIPSRFSGSGSGTDFTLTISSLQPEDFATYYCQQVNEFPVTFGQGTKVEIK

Ratio of KD huOKT8.v1/KD variant for binding to huCD8 [1]: 210 X
B7: huOKT8.v15 (antibody, V domains shown)
VH: EVQLVQSGAEVKKPGASVKVSCKASGFNIKDTYIHWVRQAPGQGLEWIGRIDPANDNTLYARKFQGRATITADTSTSTAYLELSSLRSEDTAVYYCTRGYGYYVFDTWGQGTLVTVSS
VL: DVQITQSPSSLSASVGDRVTITCRTSRSISQYLAWYQEKPGKTNKLLIYSGSTLQSGIPSRFSGSGSGTDFTLTISSLQPEDFATYYCQQVNEFPVTFGQGTKVEIKR
notes: as for B5
